{"source": "patent US20160031998A1", "about": "(CSL, published 2016)", "binders": {"B1": {"name": "C1.2 IgG4 antibody (antibody, V domains shown)", "VH": "EVQLLESGGGLVQPGGSLRLSCAASGFTFSLYWMGWVRQAPGKGLEWVSSISSSGGVTPYADSVKGRFTISRDNSKNTLYLQMNSLRAEDTAVYYCAMLGELGWFDPWGQGTLVTVSS", "VL": "DIQMTQSPSALSASVGDRVTITCRASQGISSYLNWYQQKPGKAPKLLIYYASNLQNGIPSRFSGSGSGTDFTLTISSLQPEDFATYHCQQSYSTPLTFGGGTNVEIR", "notes": "human IgG4 format; also called C1.2 Ab"}, "B2": {"name": "C1.2 Fab (Fab, V domains shown)", "VH": "B1 VH", "VL": "B1 VL", "notes": "human Fab (papain digest of the antibody or E. coli expression); also called Fab C1.2"}, "B3": {"name": "C1.2G (germlined C1.2), human IgG4 (antibody, V domains shown)", "VH": "B1 VH with M98K", "VL": "B1 VL with A10S, I58V, H87Y, N103K, R107K", "notes": "Human IgG4/kappa; also called C1.2 germline mAb; C1.2G (human IgG4)"}}, "key": {"[1]": {"biological_target": "T1, human G-CSFR expressed on cells (Homo sapiens, UniProt Q99062 25-836)", "T1 sequence": "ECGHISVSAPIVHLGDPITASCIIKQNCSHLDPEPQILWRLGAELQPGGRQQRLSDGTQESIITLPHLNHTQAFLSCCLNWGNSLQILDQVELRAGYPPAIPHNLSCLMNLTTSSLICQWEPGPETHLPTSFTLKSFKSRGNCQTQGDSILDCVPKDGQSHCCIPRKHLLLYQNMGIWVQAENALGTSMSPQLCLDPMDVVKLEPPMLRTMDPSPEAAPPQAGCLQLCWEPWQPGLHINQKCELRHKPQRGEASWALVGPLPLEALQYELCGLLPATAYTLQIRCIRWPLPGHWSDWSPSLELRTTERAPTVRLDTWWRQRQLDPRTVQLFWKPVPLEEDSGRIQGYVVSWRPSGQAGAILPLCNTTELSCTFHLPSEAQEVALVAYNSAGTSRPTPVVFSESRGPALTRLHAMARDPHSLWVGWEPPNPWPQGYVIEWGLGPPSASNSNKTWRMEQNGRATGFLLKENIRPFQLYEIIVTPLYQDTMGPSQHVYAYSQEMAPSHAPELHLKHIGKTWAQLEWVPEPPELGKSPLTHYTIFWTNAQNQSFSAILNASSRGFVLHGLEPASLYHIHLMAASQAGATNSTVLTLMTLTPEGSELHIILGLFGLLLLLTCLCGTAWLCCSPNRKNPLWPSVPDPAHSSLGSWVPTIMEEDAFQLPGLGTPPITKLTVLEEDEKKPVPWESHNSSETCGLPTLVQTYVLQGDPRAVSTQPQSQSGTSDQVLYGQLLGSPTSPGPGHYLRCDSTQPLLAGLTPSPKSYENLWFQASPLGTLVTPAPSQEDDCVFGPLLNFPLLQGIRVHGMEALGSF", "assay": "cell-based or functional assay"}, "[2]": {"biological_target": "T2, hG-CSFR-Fc: polypeptide of SEQ ID NO: 1 in which the C-terminal polyhistidine tag is replaced with an Fc … (Homo sapiens, UniProt Q99062 25-335)", "T2 construct": "the Fc is not specified; also called human G-CSFR-Fc; hG-CSFR-Fc fusion", "T2 chain": "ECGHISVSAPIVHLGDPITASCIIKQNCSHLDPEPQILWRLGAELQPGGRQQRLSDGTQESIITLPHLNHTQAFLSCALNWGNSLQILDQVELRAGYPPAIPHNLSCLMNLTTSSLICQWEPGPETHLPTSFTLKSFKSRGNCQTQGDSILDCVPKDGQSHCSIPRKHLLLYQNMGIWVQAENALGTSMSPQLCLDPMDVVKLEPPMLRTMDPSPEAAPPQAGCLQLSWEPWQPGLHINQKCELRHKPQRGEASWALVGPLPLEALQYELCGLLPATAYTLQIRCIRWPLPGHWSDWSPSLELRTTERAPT", "assay": "SPR (Biacore 2000), receptor immobilised on CM5 chip, IgG4 in solution", "procedure": "(§1) Duplicate biosensor analysis of the antibodies c1.2 and 5D11 in IgG4 format were performed using a Biacore 2000 with a doubling dilution of the antibodies (312 nM to 2.4 nM in 0.1 mg/ml BSA) at a flow rate of 30 ul/min. Binding (100 μl) was monitored to respective flow cells containing control immobilized blank, immobilized cyno-G-CSFR-Fc, immobilized hG-CSFR-Fc and immobilized hG-CSFR. Receptor proteins (20 ug per ml in 20 mM Sodium Acetate pH 4.5) were previously immobilized to a CM5 chip using a NHS/EDC coupling kit as per the manufacturer's instructions (Biacore GE, Sweden). Target immobilization values were set at 700, 700 and 500 resonance units for cyno-G-CSFR-Fc, hG-CSFR-Fc and hG-CSFR, respectively. Chip immobilization was quenched with 50 mM ethanolamine pH 8.0. Dissociation of surface binding was monitored for 1000 seconds prior to desorption of the remaining complex using 50 mM Phosphoric acid. Reference binding was then subtracted from the control channel and kinetics generated using biaevaluation software on the Biacore 2000."}, "[3]": {"biological_target": "T3, soluble hG-CSFR: amino acids 25-335 of Homo sapiens G-CSFR with mutations C78A, C163S and C228S and a … (Homo sapiens, UniProt Q99062 25-335)", "T3 chain": "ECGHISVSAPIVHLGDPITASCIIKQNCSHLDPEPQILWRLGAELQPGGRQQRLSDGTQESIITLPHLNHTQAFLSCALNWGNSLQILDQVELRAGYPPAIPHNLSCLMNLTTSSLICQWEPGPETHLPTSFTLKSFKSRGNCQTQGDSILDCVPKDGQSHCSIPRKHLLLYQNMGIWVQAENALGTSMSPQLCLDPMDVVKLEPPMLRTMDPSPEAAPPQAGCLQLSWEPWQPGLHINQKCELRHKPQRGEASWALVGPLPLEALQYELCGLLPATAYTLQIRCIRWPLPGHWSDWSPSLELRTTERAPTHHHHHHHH", "assay": "SPR (Biacore 2000), receptor immobilised on CM5 chip, IgG4 in solution", "procedure": "as §1"}, "[4]": {"biological_target": "T4, cynoG-CSFR-Fc: corresponding segment of cynomolgus monkey G-CSFR with an Fc sequence attached to its … (Macaca fascicularis, UniProt Q99062 25-335 (human entry))", "T4 construct": "the Fc is not specified; also called cynomolgus monkey G-CSFR-Fc", "T4 chain": "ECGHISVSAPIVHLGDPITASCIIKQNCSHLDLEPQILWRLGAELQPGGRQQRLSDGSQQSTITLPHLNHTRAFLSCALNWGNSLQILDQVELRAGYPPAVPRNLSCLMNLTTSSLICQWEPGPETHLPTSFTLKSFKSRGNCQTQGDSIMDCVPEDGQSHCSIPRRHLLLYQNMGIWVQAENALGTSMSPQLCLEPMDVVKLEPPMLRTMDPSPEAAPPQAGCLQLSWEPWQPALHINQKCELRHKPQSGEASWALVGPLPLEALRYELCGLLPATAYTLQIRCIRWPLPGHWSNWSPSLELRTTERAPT", "assay": "SPR (Biacore 2000), receptor immobilised on CM5 chip, IgG4 in solution", "procedure": "as §1"}, "[5]": {"biological_target": "T2, hG-CSFR-Fc: polypeptide of SEQ ID NO: 1 …", "assay": "SPR (Biacore 2000), receptor immobilised on CM5 chip, Fab in solution", "procedure": "(§2) Duplicate biosensor analysis of the Fab were performed using a Biacore 2000 (GE, Sweden) with a doubling dilution of Fab antibodies (100 nM to 0.39 nM in 0.1 mg/ml BSA) at a flow rate of 30 μl/min. Binding (100 μl) was monitored to respective flow cells containing control immobilised blank, immobilized cyno G-CSFR-Fc, immobilized human G-CSFR-Fc and immobilized human G-CSFR. Receptor proteins (20 μg per ml in 20 mM Sodium Acetate pH 4.5) were previously immobilized to a CM5 chip using a NHS/EDC coupling kit as per the manufacturer's instructions (Biacore GE, Sweden). Target immobilization values were set at 700, 700 and 500 resonance units for cyno G-CSFR-Fc, hG-CSFR-Fc and hG-CSFR, respectively. Chip immobilisation was quenched with 50 mM ethanolamine pH 8.0. Dissociation of surface binding was monitored for 1000 seconds prior to desorption of the remaining complex using 50 mM Phosphoric acid. Reference binding was then subtracted from the control channel and kinetics generated using biaevaluation software on the Biacore 2000."}, "[6]": {"biological_target": "T3, soluble hG-CSFR: amino acids 25-335 of …", "assay": "SPR (Biacore 2000), receptor immobilised on CM5 chip, Fab in solution", "procedure": "as §2"}, "[7]": {"biological_target": "T4, cynoG-CSFR-Fc: corresponding segment of …", "assay": "SPR (Biacore 2000), receptor immobilised on CM5 chip, Fab in solution", "procedure": "as §2"}, "[8]": {"biological_target": "T5, wild type hG-CSFR (soluble, corresponding extracellular domains of the wild type receptor) (Homo sapiens, UniProt Q99062 25-335)", "T5 construct": "also called wt hG-CSFR", "T5 sequence": "T2 chain with A78C, S163C, S228C", "assay": "SPR (Biacore), mAb captured by anti-Fc, soluble wild type receptor injected"}, "[9]": {"biological_target": "T1, human G-CSFR expressed on cells", "assay": "binding to BaF3 cells expressing hG-CSFR; method not described; hG-CSFR on the cell surface of BaF3 cells"}, "[10]": {"biological_target": "T1, human G-CSFR expressed on cells", "assay": "cell-based or functional assay", "remark": "listed apart in the source"}}, "note": "Changes are numbered by the printed parent chain."}
{"binder": "B1", "values": [{"measurement": "IC50, inhibition of CFU-G formation by CD34+ bone marrow cells in the presence of G-CSF", "setting": "[1]", "result": 16, "unit": "pM"}, {"measurement": "IC50, inhibition of G-CSF-mediated proliferation of BaF3 cells expressing hG-CSFR", "setting": "[1]", "result": 500, "unit": "pM"}, {"measurement": "Kd", "setting": "[2]", "result": 77, "unit": "pM"}, {"measurement": "Kd", "setting": "[3]", "result": 27, "unit": "pM"}, {"measurement": "Kd", "setting": "[4]", "result": 54, "unit": "pM"}]}
{"binder": "B2", "values": [{"measurement": "Kd", "setting": "[5]", "result": 330, "unit": "pM"}, {"measurement": "Kd", "setting": "[6]", "result": 370, "unit": "pM"}, {"measurement": "Kd", "setting": "[7]", "result": 390, "unit": "pM"}]}
{"binder": "B3", "values": [{"measurement": "Kd", "setting": "[8]", "result": 1400, "unit": "pM"}, {"measurement": "IC50, inhibition of G-CSF-mediated proliferation of BaF3 cells expressing hG-CSFR (3H-thymidine incorporation)", "setting": "[1]", "result": 0.8, "unit": "µg/mL"}, {"measurement": "Kd", "setting": "[9]", "result": 257, "unit": "pM"}, {"measurement": "IC50 (nM), inhibition of G-CSF-mediated proliferation of BaF3 cells", "setting": "[10]", "result": 0.32, "unit": "nM"}]}
